The supplement of paper PMC9170038

System: MS2 coat protein
Experiment: apparent KD of MS2 coat protein; higher = weaker reporter binding
Conditions: Eterna round: R107
Summary of the method: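 On-chip transcription from Illumina sequencing clusters produced the designed RNA switches. These were titrated with SNAP-549-labelled MS2 coat protein (twofold steps, 0.7 or 1.5 nM to 3 µM) in 100 mM Tris-HCl pH 7.5, 80 mM KCl, 4 mM MgCl2, with or without constant ligand. The apparent KD given is the per-design median of normalised cluster binding-curve fits.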

[1] = input ligand: theophylline 20 uM
[2] = input ligand: theophylline 2 mM
[3] = input ligand: tryptophan 2.4 mM

Row | Sequence | apparent KD of MS2 coat protein (input ligand: arginine 13.2 mM) [µM] | apparent KD of MS2 coat protein (input ligand: none) [µM] | apparent KD of MS2 coat protein [1] [µM] | apparent KD of MS2 coat protein [2] [µM] | apparent KD of MS2 coat protein [3] [µM]
1 | UGUAACAUGAGGAUCACCCAUGUGAGUGAUACCAGACUAGUGUUAGUCCCUUGGCAGCACGCUGGACGAAUGUGUAGUCUAUGCG [Same State - Theophylline A (Freestyle 19)] | 0.0558 | 0.078 | 0.108 | 0.0583 | 0.0639
2 | UAGGACAUGAGGAUCACCCAUGUUGUACGGCGAGGACCGGUACGGCCGCCACUCGAGGCGUAAGUAGUAAAGAAUCUGAUUCAAU [theeternabot_sameState_MS2_Trp_A_4] | 0.0137 | – | 0.0409 | 0.0207 | –
3 | AGAUUCGACACGGCCGCCACUCGUGGUGGAUUACCUAGUGUCGAACAUGAGGAUCACCCAUGUACGAGGACCGGGUGUUGAGUCU [XTryp B #18] | 0.0405 | – | 0.0856 | 0.086 | –
4 | UCUGGUAUGACGGCCGCCACUAGAUCGUGAGAAGCCUGCAUACAUGAGGAUCACCCAUGUCUCACUAGGACCGGGUCAUUCCAAU [theeternabot_sameState_MS2_Trp_B_5] | 0.0538 | – | 0.105 | 0.119 | –
5 | AACGUAUACAGAAGGAGCGUGAAUUAUAUUACUCAUUCUUAUACAUGAGGAUCACCCAUGUCACAGGUAGGUCGCUGUAUUCGUA [JR_ExcArginiB_Sub019] | 0.0819 | 0.106 | 0.0919 | 0.111 | 0.0816
6 | GCUAGGUCAUCGGCCGCCACUAACGAAGGUUCGAACAUGAGGAUCACCCAUGUGCCACAUGCGCAUAGGACCGGGAUGACCUAGC [SSTB NP+V+V2 #7 +-Same Structure] | 0.0138 | 0.0173 | 0.0262 | 0.0208 | 0.0114
7 | GGGUACAUCGCGGCCGCCACUCAUGUAAAUUCAUGAGGAUCACCCAUGACGAUGGAGACAUCGGAGAGGACCGGGUGAUGUACCG | 0.0265 | 0.0168 | 0.023 | 0.0208 | 0.0168
8 | CAUCCACCUGAAGCCUCCCAAUUCCUCGAUACCAGAGGAUUAAGACUCCCUUGGCAGCGAGCUACAUGAGGAUCACCCAUGUGCC [theeternabot_exclusion_MS2_Theo_A_32] | 0.0178 | – | 0.0241 | – | 0.0182
9 | CACGAAAGAUCGGCCGCCACUAUUUGAUGUGUUCUUUCACAUGAGGAUCACCCAUGUUCUUAUUUUAGGACCGGGAUUGAGCGUG [ETB #2] | 0.0727 | – | 0.142 | 0.145 | –
10 | CCUAUUCCUACGGAUACCAGACGAUCCGUGGCGUGUGUGAACAUGAGGAUCACCCAUGUAGUCCCUUGGCAGCCGAUGCGGGUAA [theeternabot_exclusion_MS2_Theo_B_10] | 0.0377 | – | 0.0514 | – | 0.0335
11 | AUAUAUACAUGAGGAUCACCCAUGUUAUUUCGAGGACCGGUACGGCCGCCACUCGAUAGAGUAGAAGUAACAUGUGUUAGUUGAU [JR_SSTryptoA_Sub014] | 0.0163 | – | 0.0328 | 0.0391 | –
12 | GCUUGGGUGGCCCAGCCCUGGCAGGGCGAUACCAGCCCGGUAACGGGCCCUUGGCAGCGCACAUGAGGAUCACCCAUGUGGUGCG [#1 Exclusion - Theophylline A Attempt #28 (HarryS)] | 0.0224 | 0.0524 | 0.0603 | 0.085 | 0.0449
13 | CAAUGCAGGUCGGCCGCCACUACACACAUGAGGAUCACCCAUGUAGUUACUGGGUGAAGUGGCAGUAGGACCGGGACCUGCAUAA [Brourdmod02] | 0.143 | – | 0.417 | 0.568 | –
14 | CACAGUGCGAAAUUGAAUUCGCACGAUCCUCGAGGACCGGUACGGCCGCCACUCGCGCGGGUCGUACAUGAGGAUCACCCAUGUC [Zatiin] | 0.0413 | – | 0.419 | 0.477 | –
15 | UUAUUUAACGGAAGGAGCGCGGAUAAAAUAGUGGGUAAACAUGAGGAUCACCCAUGUAAACCGCAGGUAGGUCGCCGAUAUUUAU [AstrosEXyARgB#5] | 0.0215 | 0.0431 | 0.0488 | 0.0333 | 0.0359
16 | CAUCCUAGUACAUGAGGAUCACCCAUGUAUCGAGGACCGGUACGGCCGCCACUCGAAUGGCGGAUCGUUAAUCCUCUAGGAUGGA [Tryp A Ex 4a] | 0.0117 | – | 0.014 | 0.0115 | –
17 | AUUUUUCUAUCAGAUACCAGACAAUUUUAGACAUGAGGAUCACCCAUGUAUAGGGUGUUCGUCCCUUGGCAGCUGUUAAGUUUAA [JR_SSTheophyB_Sub004] | 0.062 | – | 0.152 | – | 0.182
18 | ACGUCAUGGAGAACGUGACGACUUAUCGAUACCAGCGAUUGAGAGCGCCCUUGGCAGCGAACAUGAGGAUCACCCAUGUCAAGGG [Same State - Theophylline A] | 0.0291 | – | 0.0365 | – | 0.0294
